Results taken from US20090304719A1.
Where no end group is shown, it is not given here. CPX display scaffold = circularly permuted E. coli OmpX display scaffold

Legend:
[1] = target: anti-VCAM-1 scFv; assay: FACS, peptide displayed on bacteria, 50 nM biotinylated anti-VCAM scFv then 1 nM anti-biotin PE; background without scFv printed as 142
[2] = target: VEGF (UniProt P15692); assay: FACS, clone displayed on E. coli (CPX), labeled VEGF; with MMP-2 against without (FIG. 23)
[3] = target: VEGF (UniProt P15692); assay: FACS, clone displayed on E. coli (CPX), labeled VEGF; MMP-2 treated against untreated (FIG. 25)

Sequence of VEGF (P15692 other isoform, or with tags, fused parts or gaps limits assumed): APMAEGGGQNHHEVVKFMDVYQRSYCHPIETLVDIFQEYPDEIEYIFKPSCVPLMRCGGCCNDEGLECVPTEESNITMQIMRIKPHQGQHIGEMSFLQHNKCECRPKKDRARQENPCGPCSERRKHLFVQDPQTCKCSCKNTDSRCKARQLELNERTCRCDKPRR

Binder	average fluorescence value [1]	fold increase in fluorescence in the presence of MMP-2 [2] [fold]	fold increase in fluorescence after enzyme cleavage [3] [fold]
GVVLTTMNFWDWITV [BBB-08]	2620	–	–
GQSGQCEYAFGPLGLAGGGSGNFGYGKWEWDYGKWLEKVGGC-{CPX display scaffold} (designed binder, not shown: large carriers; small tags and cut ends, not fully specified; cysteine pairing not given here) [ABP library clone 2-3B-5]	–	11.8	10
